Measurements from PMC7679444.

B1: TMEM59 peptide (residues 268–280), wild type [modified: long spacer (Tds) at the N-terminal end, used for immobilisation; long spacer (Tds) at the N-terminal end, used for immobilisation] [not stated] / GST-HA-ATG16L1(231–607) … (parent)
chain 1: PLPVEQDDDIEVIVDETSDHTEETSPVRAISRAATKRLSQPAGGLLDSITNIFGRRSVSSFPVPQDNVDTHPGSGKEVRVPATALCVFDAHDGEVNAVQFSPGSRLLATGGMDRRVKLWEVFGEKCEFKGSLSGSNAGITSIEFDSAGSYLLAASNDFASRIWTVDDYRLRHTLTGHSGKVLSAKFLLDNARIVSGSHDRTLKLWDLRSKVCIKTVFAGSSCNDIVCTEQCVMSGHFDKKIRFWDIRSESIVREMELLGKITALDLNPERTELLSCSRDDLLKVIDLRTNAIKQTFSAPGFKCGSDWTRVVFSPDGSYVAAGSAEGSLYIWSVLTGKVEKVLSKQHSSSINAVAWSPSGSHVVSVDKGCKAVLWAQY
chain 2: YVPSEKLSIYGDL

Variants of: B1
Assay: peptide microarray
Settings: with GST-HA-ATG16L1(231–607) [human], parent: 100

Variant	percent of parent (ligand 800, 600, 400 nM) [% WT]	percent of parent (ligand 200, 50, 20 nM) [% WT]
chain 2 I9E	96	–
chain 2 I9V	109	–
chain 2 I9N	51	–
chain 2 I9R	93	–
chain 2 I9L	95	–
chain 2 I9K	149	–
chain 2 I9H	145	–
chain 2 I9M	66	–
chain 2 I9A	76	–
chain 2 I9F	159	–
chain 2 I9Q	102	–
chain 2 I9Y	198	–
chain 2 I9T	49	–
chain 2 I9W	200	–
chain 2 I9S	61	–
chain 2 I9P	89	–
chain 2 I9D	15	–
chain 2 I9G	39	–
chain 2 P3T	191	518
chain 2 P3H	145	225
chain 2 P3I	172	343
chain 2 P3R	131	216
chain 2 P3D	107	104
chain 2 P3V	176	334

Variant	percent of parent (ligand 800, 600, 400 nM) [% WT]	percent of parent (ligand 200, 50, 20 nM) [% WT]
chain 2 P3F	168	472
chain 2 P3M	184	435
chain 2 P3E	86	89
chain 2 P3L	189	493
chain 2 P3W	188	483
chain 2 P3N	110	109
chain 2 P3S	138	184
chain 2 P3K	181	499
chain 2 P3A	168	328
chain 2 P3G	131	143
chain 2 P3Y	104	134
chain 2 P3Q	152	254
chain 2 D12L	110	–
chain 2 D12N	128	–
chain 2 D12I	129	–
chain 2 D12F	138	–
chain 2 D12M	93	–
chain 2 D12W	177	–
chain 2 D12V	159	–
chain 2 D12T	133	–
chain 2 D12Q	105	–
chain 2 D12E	173	–
chain 2 D12P	145	–
chain 2 D12S	128	–

Variant	percent of parent (ligand 800, 600, 400 nM) [% WT]	percent of parent (ligand 200, 50, 20 nM) [% WT]
chain 2 D12K	191	–
chain 2 D12R	164	–
chain 2 D12H	179	–
chain 2 D12A	131	–
chain 2 D12Y	180	–
chain 2 D12G	158	–
chain 2 Y10P	3	–
chain 2 Y10D	4	–
chain 2 Y10N	3	–
chain 2 Y10H	3	–
chain 2 Y10S	3	–
chain 2 Y10A	4	–
chain 2 Y10V	9	–
chain 2 Y10M	3	–
chain 2 Y10E	2	–
chain 2 Y10F	106	–
chain 2 Y10W	135	–
chain 2 Y10T	4	–
chain 2 Y10I	21	–
chain 2 Y10G	2	–
chain 2 Y10Q	2	–
chain 2 Y10L	36	–
chain 2 Y10R	5	–
chain 2 Y10K	6	–

Variant	percent of parent (ligand 800, 600, 400 nM) [% WT]	percent of parent (ligand 200, 50, 20 nM) [% WT]
chain 2 K6S	11	8
chain 2 K6F	114	96
chain 2 K6Y	74	105
chain 2 K6I	61	53
chain 2 K6E	3	2
chain 2 K6N	2	4
chain 2 K6P	3	7
chain 2 K6V	56	50
chain 2 K6G	6	6
chain 2 K6Q	4	3
chain 2 K6H	21	28
chain 2 K6T	12	7
chain 2 K6L	51	35
chain 2 K6D	6	7
chain 2 K6M	10	7
chain 2 K6R	11	8
chain 2 K6W	106	126
chain 2 K6A	7	6
chain 2 S8L	74	56
chain 2 S8G	57	56
chain 2 S8M	27	21
chain 2 S8W	179	–
chain 2 S8R	115	113
chain 2 S8K	144	158

Variant	percent of parent (ligand 800, 600, 400 nM) [% WT]	percent of parent (ligand 200, 50, 20 nM) [% WT]
chain 2 S8N	111	126
chain 2 S8Y	137	–
chain 2 S8H	115	124
chain 2 S8A	59	55
chain 2 S8I	51	41
chain 2 S8Q	113	64
chain 2 S8E	11	6
chain 2 S8P	78	50
chain 2 S8F	144	175
chain 2 S8T	67	54
chain 2 S8D	9	7
chain 2 S8V	60	–
chain 2 G11I	1	–
chain 2 G11N	140	–
chain 2 G11P	155	–
chain 2 G11Q	31	–
chain 2 G11Y	150	–
chain 2 G11M	40	–
chain 2 G11W	165	–
chain 2 G11A	18	–
chain 2 G11K	127	–
chain 2 G11V	13	–
chain 2 G11F	43	–
chain 2 G11R	62	–

Variant	percent of parent (ligand 800, 600, 400 nM) [% WT]	percent of parent (ligand 200, 50, 20 nM) [% WT]
chain 2 G11T	117	–
chain 2 G11D	146	–
chain 2 G11L	17	–
chain 2 G11S	103	–
chain 2 G11E	129	–
chain 2 G11H	156	–
chain 2 S4D	29	33
chain 2 S4N	30	38
chain 2 S4V	144	156
chain 2 S4Y	188	320
chain 2 S4L	157	163
chain 2 S4H	106	122
chain 2 S4Q	94	88
chain 2 S4G	64	49
chain 2 S4W	187	352
chain 2 S4R	110	110
chain 2 S4E	45	38
chain 2 S4K	180	262
chain 2 S4I	155	176
chain 2 S4T	69	62
chain 2 S4P	65	63
chain 2 S4F	1	1
chain 2 S4M	32	31
chain 2 S4A	73	78

Variant	percent of parent (ligand 800, 600, 400 nM) [% WT]	percent of parent (ligand 200, 50, 20 nM) [% WT]
chain 2 E5T	179	261
chain 2 E5D	126	123
chain 2 E5H	183	303
chain 2 E5N	183	269
chain 2 E5R	165	224
chain 2 E5L	51	42
chain 2 E5A	95	86
chain 2 E5Q	167	214
chain 2 E5M	162	217
chain 2 E5K	186	330
chain 2 E5P	97	92
chain 2 E5V	52	47
chain 2 E5W	109	105
chain 2 E5I	32	27
chain 2 E5F	29	22
chain 2 E5S	135	146
chain 2 E5G	142	158
chain 2 E5Y	148	158
chain 2 V2N	25	19
chain 2 V2D	18	13
chain 2 V2T	31	33
chain 2 V2G	58	73
chain 2 V2Y	90	80
chain 2 V2A	50	47

Variant	percent of parent (ligand 800, 600, 400 nM) [% WT]	percent of parent (ligand 200, 50, 20 nM) [% WT]
chain 2 V2W	119	118
chain 2 V2Q	15	12
chain 2 V2R	47	41
chain 2 V2K	96	101
chain 2 V2H	67	55
chain 2 V2F	177	250
chain 2 V2L	134	145
chain 2 V2S	56	50
chain 2 V2E	11	9
chain 2 V2M	28	31
chain 2 V2P	41	35
chain 2 V2I	99	96
chain 2 Y1M	10	12
chain 2 Y1F	121	139
chain 2 Y1S	28	29
chain 2 Y1E	13	13
chain 2 Y1L	41	44
chain 2 Y1W	121	120
chain 2 Y1V	16	15
chain 2 Y1D	12	10
chain 2 Y1G	92	94
chain 2 Y1I	79	75
chain 2 Y1T	17	17
chain 2 Y1Q	12	10

Variant	percent of parent (ligand 800, 600, 400 nM) [% WT]	percent of parent (ligand 200, 50, 20 nM) [% WT]
chain 2 Y1H	28	30
chain 2 Y1N	22	21
chain 2 Y1A	18	17
chain 2 Y1P	17	16
chain 2 Y1K	19	17
chain 2 Y1R	17	12
chain 2 L13G	54	–
chain 2 L13P	94	–
chain 2 L13V	123	–
chain 2 L13Q	37	–
chain 2 L13E	60	–
chain 2 L13Y	201	–
chain 2 L13I	177	–
chain 2 L13W	196	–
chain 2 L13A	50	–
chain 2 L13F	173	–
chain 2 L13K	21	–
chain 2 L13S	32	–
chain 2 L13N	30	–
chain 2 L13R	48	–
chain 2 L13T	5	–
chain 2 L13D	27	–
chain 2 L13H	66	–
chain 2 L13M	36	–

Variant	percent of parent (ligand 800, 600, 400 nM) [% WT]	percent of parent (ligand 200, 50, 20 nM) [% WT]
chain 2 L7P	11	13
chain 2 L7I	95	83
chain 2 L7G	86	54
chain 2 L7W	112	38
chain 2 L7V	142	153
chain 2 L7E	7	3
chain 2 L7R	59	32
chain 2 L7N	75	46
chain 2 L7H	103	66
chain 2 L7M	52	39
chain 2 L7T	73	38
chain 2 L7S	58	31
chain 2 L7D	12	11
chain 2 L7Y	87	69
chain 2 L7A	88	98
chain 2 L7K	53	22
chain 2 L7F	89	102
chain 2 L7Q	28	11
